Drawing on patent US20260035452A1, “NOVEL INTERLEUKIN-17A (IL-17A)-DERIVED PEPTIDE AND NEUTRALIZING ANTIBODY (AB17-IPL-1)” (THE UNIVERSITY OF BIRMINGHAM, priority 2022, published 2026), this text covers IL-6 production by human RA fibroblasts stimulated with IL-17 (10 ng/ml) and TNF-α (100 U/ml); 3662.05 µg/ml without antibody; antibody for one substance.

In this test the target is IL-17 (used on human synovial fibroblasts, Example 9). Kind of test: cell-based or functional assay.

With MAB421 (antibody), the IL-6 production by human RA fibroblasts stimulated with IL-17 (10 ng/ml) and TNF-α (100 U/ml); 3662.05 µg/ml without antibody; antibody at 10 µg/ml was 2320 µg/mL.
